Target: FBXW7 (UniProt Q8VBV4)
Assay: anti-FLAG co-IP, MCL1-HA blot
Conditions: reference: WT MCL1-HA; sites S140

binding against the reference: weaker
Substance: MCL1 (from UniProt P97287) MCL1-HA S140A

Source: article PMC5294778
